This passage reports EC50 results from patent publication US9023351.

This test has as its target human mesothelin (human, UniProt Q13421). Nature of the test: FACS, OVCAR-3 cells.

human mesothelin, sequence (Q13421 other isoform, or with tags, fused parts or gaps): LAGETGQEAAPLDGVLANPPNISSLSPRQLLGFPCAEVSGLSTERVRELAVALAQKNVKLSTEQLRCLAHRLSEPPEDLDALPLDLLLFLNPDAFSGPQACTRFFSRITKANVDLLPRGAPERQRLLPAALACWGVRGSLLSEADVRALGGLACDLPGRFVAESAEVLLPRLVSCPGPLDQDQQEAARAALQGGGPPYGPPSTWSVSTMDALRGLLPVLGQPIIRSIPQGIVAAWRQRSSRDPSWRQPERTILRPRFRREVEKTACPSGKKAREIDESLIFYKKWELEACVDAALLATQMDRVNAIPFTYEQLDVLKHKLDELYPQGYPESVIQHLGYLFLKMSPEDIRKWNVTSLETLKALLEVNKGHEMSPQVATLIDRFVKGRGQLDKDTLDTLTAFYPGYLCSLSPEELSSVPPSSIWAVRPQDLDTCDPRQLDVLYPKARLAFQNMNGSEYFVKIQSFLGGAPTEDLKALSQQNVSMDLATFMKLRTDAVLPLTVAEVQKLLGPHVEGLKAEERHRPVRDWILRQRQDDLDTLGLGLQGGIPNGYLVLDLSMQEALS

B1: MOR06631 IgG (antibody, V domains shown)
VH: QVQLVQSGAEVKKPGESLKISCKGSGYSFTNYWIGWVRQMPGKGLEWMGFIWPVDSWTQYSPSFQGQVTISADKSISTAYLQWSSLKASDTAMYYCARYGHGMYGGALDVWGQGTLVTVSS
VL: DIVLTQSPATLSLSPGERATLSCRASQSVRSSRLAWYQQKPGQAPRLLIYGASKRATGVPARFSGSGSGTDFTLTISSLEPEDFATYYCQQYYDFPPTFGQGTKVEIK
The EC50 is the concentration needed to bring the measured effect to its halfway point. A lower EC50 goes with greater potency. B1 returned a half-maximal effective concentration (EC50) of 0.96 nM.

B2: MOR06642 IgG (antibody, V domains shown)
VH: QVQLVQSGAEVKKPGESLKISCKGSGYSFTNYWIGWVRQMPGKGLEWMGVIMPSDSYTRYSPSFQGQVTISADKSISTAYLQWSSLKASDTAMYYCARYGHGMYGGALDVWGQGTLVTVSS
VL: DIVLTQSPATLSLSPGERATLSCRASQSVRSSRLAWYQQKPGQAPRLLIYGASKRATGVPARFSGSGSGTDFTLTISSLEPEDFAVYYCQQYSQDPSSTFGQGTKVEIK
Regarding B2, the EC50 came out at 0.54 nM.

B3: MOR06669 IgG (antibody, V domains shown)
VH: QVQLVQSGAEVKKPGESLKISCKGSGYSFTNYWIGWVRQMPGKGLEWMGIIWPIDSFTQYSPSFQGQVTISADKSISTAYLQWSSLKASDTAMYYCARYGHGMYGGALDVWGQGTLVTVSS
VL: DIVLTQSPATLSLSPGERATLSCRASQSVRSSRLAWYQQKPGQAPRLLIYGASKRATGVPARFSGSGSGTDFTLTISSLEPEDFATYYCQQYYDFPPTFGQGTKVEIK
B3 gave an EC50 of 1.4 nM.

B4: MOR07265 IgG (antibody, V domains shown)
VH: QVQLVQSGAEVKKPGESLKISCKGSGYSFTNYWIGWVRQMPGKGLEWMGFIWPVDSWTQYSPSFQGQVTISADKSISTAYLQWSSLKASDTAMYYCARYGHGMYGGALDVWGQGTLVTVSS
VL: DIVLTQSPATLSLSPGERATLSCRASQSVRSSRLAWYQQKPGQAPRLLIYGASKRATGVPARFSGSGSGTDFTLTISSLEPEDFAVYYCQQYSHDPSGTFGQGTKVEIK
For the molecule B4, the EC50 was determined as 1.06 nM.

B5: MOR07111 IgG (antibody, V domains shown)
VH: QVQLVQSGAEVKKPGESLKISCKGSGYSFTNYWIGWVRQMPGKGLEWMGVIMPSDSYTRYSPSFQGQVTISADKSISTAYLQWSSLKASDTAMYYCARYGHGMYGGALDVWGQGTLVTVSS
VL: DIVLTQSPATLSLSPGERATLSCRASQSVRSSRLAWYQQKPGQAPRLLIYGASKRATGVPARFSGSGSGTDFTLTISSLEPEDFAVYYCQQFYSKPITFGQGTKVEIK
In turn, B5 yielded an EC50 of 1.35 nM.

B6: MOR06643 IgG (antibody, V domains shown)
VH: QVQLVESGGGLVQPGGSLRLSCAASGFTFSDYAMSWVRQAPGKGLEWVSAIMYDSSSTFYADSVKGRFTISRDNSKNTLYLQMNSLRAEDTAVYYCARINYIYKGVHFDYWGQGTLVTVSS
VL: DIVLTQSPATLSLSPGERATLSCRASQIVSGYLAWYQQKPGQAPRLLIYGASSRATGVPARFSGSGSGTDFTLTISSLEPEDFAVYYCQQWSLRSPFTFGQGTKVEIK
On to B6, for which the EC50 was 1.86 nM. The EC50 values of the last two molecules are within 1.5-fold of each other.

B7: MOR06638 IgG (antibody, V domains shown)
VH: QVQLVQSGAEVKKPGASVKVSCKASGYTFTGNYINWVRQAPGQGLEWMGIINPHGGDTKYAQKFQGRVTMTRDTSISTAYMELSSLRSEDTAVYYCARWHHGTWIFDYWGQGTLVTVSS
VL: DIVLTQPPSVSGAPGQRVTISCSGSSSNIGSNYVSWYQQLPGTAPKLLIYNDNQRPSGVPDRFSGSKSGTSASLAITGLQSEDEADYYCSSWDRADGSYVFGGGTKLTVL
With B7, the EC50 stood at 4.19 nM.
